Legend:
[1] = target: TMC-2206; test: fusion protein competing Eu-TMC-2206 off α2β1-coated plate
[2] = target: TMC-2206; test: ELISA, GST fusion protein on immobilized TMC-2206 (Kd apparent)
[3] = target: TMC-2206; test: ELISA, GST fusion protein on immobilized TMC-2206
[4] = target: Humanized TMC-2206 (hIgG4/κ VH12.0/VL10.0Q); test: fusion protein competing Eu-humanized TMC-2206 off α2β1-coated plates
[5] = target: TMC-2206; test: ELISA, GST fusion protein on immobilized TMC-2206, Kd estimated from EC50
[6] = target: human α2β1 integrin on human cells (platelets, leukocytes, HT1080) (human) (UniProt P17301); test: cell-based or functional assay
[7] = target: human platelet α2β1 integrin (immobilized on microtiter plates) (human) (UniProt P17301); test: competition with Eu-TMC-2206 on platelet α2β1-coated plates

Row | Ki [1] [nM] | Kd [2] [nM] | Substance | other results
1 | 0.4 | 0.28 | GST-hα2 I domain N67E (from UniProt P17301 153-368) | 
2 | 20.2 |  | GST-mα2 I domain H93Y (from UniProt Q62469 150-377) | fold decrease in potency relative to the wt human α2 I domain [1]: 200 fold
3 | 0.73 | 0.19 | GST-hα2 I domain Q48T (from UniProt P17301 153-368) | 
4 | 0.38 | 0.15 | GST-hα2 I domain Q105E (from UniProt P17301 153-368) | 
5 | 0.86 | 0.44 | GST-hα2 I domain V70I (from UniProt P17301 153-368) | 
6 | 0.35 | 0.23 | GST-hα2 I domain E44V (from UniProt P17301 153-368) | 
7 | 3.8 |  | GST-rat α2 I domain fusion protein (from UniProt Q62469 150-377) | fold shift in Kd compared to human α2 [3]: 3 fold; Ki [4]: 5.23 nM; fold decrease in Ki compared to the human α2 I domain [4]: 9 fold; Kd [5]: 0.54 nM
8 |  |  | 10G11 (antibody) | EC50, adhesion of resting platelets to Type I collagen [6]: > 200 nM
9 | 0.39 | 0.22 | GST-hα2 I domain Y77F (from UniProt P17301 153-368) | 
10 | 0.83 | 0.19 | GST-hα2 I domain V71I (from UniProt P17301 153-368) | 
11 | 0.24 | 0.28 | GST-hα2 I domain I21V (from UniProt P17301 153-368) | 
12 |  | 6.1 | GST-hα2 I domain Y93H (from UniProt P17301 153-368) | fold decrease in apparent affinity [3]: 23 fold
13 |  |  | AK7 (antibody) | Ki [7]: 0.07 nM
14 | 0.15 | 0.17 | GST-hα2 I domain T76D (from UniProt P17301 153-368) | 

— patent US20070128190A1
